# Assay results taken from patent US20210380667A1 (NOVOZYMES A S, published 2021).
# T1: B. lentus protease having SEQ ID NO: 2 (Savinase) (Bacillus lentus, UniProt P29600 1-269)
# T1 sequence: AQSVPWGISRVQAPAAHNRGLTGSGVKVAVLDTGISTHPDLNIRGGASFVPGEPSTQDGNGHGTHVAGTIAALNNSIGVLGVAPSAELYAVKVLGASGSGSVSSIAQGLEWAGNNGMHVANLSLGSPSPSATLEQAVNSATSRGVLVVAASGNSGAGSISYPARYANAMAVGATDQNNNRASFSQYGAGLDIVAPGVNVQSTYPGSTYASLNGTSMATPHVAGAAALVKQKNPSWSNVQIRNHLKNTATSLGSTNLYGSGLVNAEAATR
# What was measured:
# [1] = molecular target: B. lentus protease variant having the amino acid sequence of SEQ ID NO: 2 with the substitutions S9E N43R N76D V205I Q206L Y209W S259D N261W L262E (Bacillus lentus), P29600; test: cell-based or functional assay
# [2] = molecular target: T1, B. lentus protease having SEQ ID NO: 2 …; test: cell-based or functional assay
pH value at which the released protease activity peaks [1] [pH],pH value at which the released protease activity peaks [2] [pH],Binder
3.5 to 4,–,CI-2A variant (CI08) K21H+P25S+E26H+K30H+E33H (protein) HNLHTEWSHLVGHSVHEAKKVILQDKPEAQIIVLPVGTIVTMEYRIDRVRLFVDKLDNIAQVPRVG
3.5 to 4,–,"CI-2A variant (CI10) K30H+E33H+K43H+P44A+P52A, P01053 19-84 (protein) HNLKTEWPELVGHSVHEAKKVILQDHAEAQIIVLAVGTIVTMEYRIDRVRLFVDKLDNIAQVPRVG"
3,~3.5,CI-2A wildtype having the amino acid sequence of the mature protein of SEQ ID NO:1 (barley chymotrypsin inhibitor 2a) (other) HNLKTEWPELVGKSVEEAKKVILQDKPEAQIIVLPVGTIVTMEYRIDRVRLFVDKLDNIAQVPRVG
